B1: LINE1-mini (parent)
chain: GGCAGAGCUCAACACAGCGUGGCAAAGUGGCUGUGGCUAGACUGCC

Variants of: B1
Test: self-cleavage, relative activity (ratio to wild type); higher = more cleavage; in vitro, sequencing; the parent is a self-cleaving ribozyme

| Variant | self-cleavage |
| --- | --- |
| G2U G40U | 0.04 |
| G2U G36U | 0.04 |
| C13G G30C | 0.12 |
| A26G G44U | 0.3 |
| C18A G27U | 1.04 |
| A6G C45U | 0.11 |
| A4C C37G | 0.05 |
| C13A C18U | 0.09 |
| A41G C46U | 0.16 |
| C3G C18G | 0.15 |
| A26G G27A | 0.99 |
| A6U A39C | 0.51 |
| A6U A26C | 0.56 |
| G1A U38G | 0.03 |
| G19A U38G | 0.02 |
| G2C C31A | 0.07 |
| C10G G27A | 0.14 |
| G22U A39G | 0.08 |
| A25G A41G | 0.26 |
| C10U U20A | 0.18 |
| U9C G30C | 0.04 |

| Variant | self-cleavage |
| --- | --- |
| G29A U34C | 0.08 |
| G29A U34A | 0.19 |
| C8U C18A | 0.18 |
| U20A G29C | 0.55 |
| U20A G29U | 0.45 |
| G2U G33C | 0.02 |
| C10G C31G | 0.02 |
| G22C U32C | 0.11 |
| U43A G44C | 0.1 |
| U34A C37G | 0.04 |
| A16C U34G | 0.05 |
| A4C A11U | 0.04 |
| C10G C15A | 0.04 |
| G2U A16G | 0.05 |
| A6C G35C | 0.05 |
| C18A A25C | 0.36 |
| G2C A12C | 0.02 |
| U9C C15U | 0.04 |
| U9C G36C | 0.03 |
| C18U C46U | 1.43 |
| C10U A26U | 0.31 |

| Variant | self-cleavage |
| --- | --- |
| C15U A26C | 1.74 |
| G5U A6U | 0.16 |
| A4C C18A | 0.07 |
| G21A G35C | 0.19 |
| A16C C18A | 0.06 |
| U9A A12U | 0.13 |
| U9A A12C | 0.03 |
| A11C G44U | 0.03 |
| A41U U43A | 0.17 |
| C15U C46U | 0.43 |
| C3U G19U | 0.32 |
| G5C C13G | 0.13 |
| U38A G44C | 0.09 |
| G1A A24G | 2.89 |
| G2U G19C | 0.03 |
| U9G G33U | 0.08 |
| C13U A16C | 0.1 |
| G1A G17A | 0.15 |
| G1A G17C | 0.18 |
| A6G G29A | 0.08 |
| C8U C42A | 0.11 |

| Variant | self-cleavage |
| --- | --- |
| G1C G27A | 0.16 |
| G2U C42U | 0.1 |
| G19U U20G | 0.77 |
| C3U G5U | 0.2 |
| G21U A24C | 0.51 |
| A4C A6C | 0.09 |
| A16U A24U | 0.11 |
| U20A A25U | 0.77 |
| G7U A39G | 0.06 |
| C10U C18G | 0.22 |
| C31A C46U | 0.11 |
| C8U U38A | 0.27 |
| A26C G36U | 0.07 |
| G19C C42A | 0.14 |
| U20G C37A | 0.02 |
| U28C G30A | 0.96 |
| G2C G22C | 0.05 |
| G17U U38C | 0.04 |
| G19U C23A | 0.64 |
| G5C G40U | 0.1 |

Source: the RNAGym collection of RNA variant scans (doi:10.7554/elife.90254)
